Data: PMC12458081

Biological target: T1, Fkh1-DBD (Saccharomyces cerevisiae, UniProt P40466 299-421)
T1 sequence: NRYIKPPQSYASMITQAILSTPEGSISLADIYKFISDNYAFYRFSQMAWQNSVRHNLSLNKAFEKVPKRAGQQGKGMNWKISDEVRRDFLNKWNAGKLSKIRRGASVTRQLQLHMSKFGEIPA
Assay: X-ray crystallography

B1: 19-bp DNA binding oligo (dsDNA)
DNA 1: CGAAATGTAAACATACCGC
DNA 2: GCGGTATGTTTACATTTCG
binding result: binds
